Source: the nanobody polyreactivity screen of Harvey et al. (2022)

Test: yeast display, Sf9 membrane polyspecificity reagent, FACS + sequencing; frameworks hold sequencing errors
Method in brief: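 Nanobodies from a synthetic yeast display library (Saccharomyces cerevisiae BJ5465), induced 36–48 hours with galactose, were stained 1 hour at 4 °C with 10% biotinylated, detergent-solubilized Sf9 membrane reagent, enriched on streptavidin microbeads, then FACS-sorted. Anti-HA (expression) and streptavidin (reagent binding) fluorescence set low and high (top ~1%) gates. Polyreactivity labels come from the gate of origin. Genes were colony-PCR amplified, MiSeq 2 × 250 sequenced and filtered by CDR length.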

Sequence	polyreactivity (PSR sort gate)
QVQLVESGGGLVQAGGSLRLSCAASRRIYGGNAMGLNRKAPGKERELVAAINSSGGRTYYADSVKGRFKISRDNAKNTVYLQMKSLKTEDTAVYYCAGRVGCNWYDYWGQGTQVPVSS	high polyreactivity
QVQLVESGGGLVQAGGSLRLSCAASRRTLGKYVMGRYRQQPGKERELVPAIRSGTNTYYADSVKGRFTISRDNAKNTVYLQMNSLIPEDTAVYYCGAARYTKFDYWGQGTQLTVSS	high polyreactivity
QVQLVESGGGLVQAGGSLRLSCAASRSIFEANDMGWYRQAQGKERELVAAIDANTGSTYYADSVKGRFTISRDNAKNTVYLQMNRLKPEDTAVYYCNAQVYLHTAYDYWGQGTQVTVSS	low polyreactivity
QVQLVESGGGLVQAGGSLRLSCAASRSTFAYYSMGWYRKEPGKETELVAAITRGGSTNYADSVKGRFRISRDNAKNTVLLQMNSLKPEDTAVYYCAAGDVQDYEYDYLGQGTQVTVSS	low polyreactivity
QVQLVESGGGLVQAGGSLRLSCAASRSTFPWYAMGWYRQAPGKERELVARINSGGSTTYADSVKGRFTISRDNAKNTVYLQMNSLKPEDTAVYYCAADRWYSTYLASYYGYDYWGQGTQVTVSS	low polyreactivity
QVQLVESGGGLVQAGGSLRLSCAASRSTLLSNAMGWYTQAPGKERELVAAINYSGGRTYYADSVKGRFTISRDNAKNTVYLQINSLKPVDTAVYYCNALSSGHGSSSRYDYWGQGTQVTVSS	low polyreactivity
QVQLVESGGGLVQAGGSLRLSCAASRTIIASYAMGSYRQAPGKERELVAAISRSGGRTYYADSVKGRFTISRDNAQNTVYLQMNSLKPEDSAVYYCNVLQPQSSDWLITYDYWGQGTQVTVSS	high polyreactivity
QVQLVESGGGLVQAGGSLRLSCAASRYYAMGWYRQAPGKERELVPAITWSGGTTYYADSVKGRFTISRYNGKNTVYLQMNSLTPEDTAVYYCNADFVRFTRHKKYYYWGQGTQVTVSS	low polyreactivity
QVQLVESGGGLVQAGGSLRLSCAASVFTFDENAMGWYRQAPGINYSGASTYYADSVKGRFTISRDNAKNTVYLQMNSLKPDDTAVYYCAAEVVAQMNYWGQGTQVTVSS	low polyreactivity
QVQLVESGGGLVQAGGSLRLSCAASVFTFSRYAMGWYRQAPGKERELVAAITSRGGSTYYADSVKGRFTISRDNAKNTVYLQMNSLKPEDTAVYYCAASGRNRKDGLYEYYYWGQGTQVTVSS	high polyreactivity
QVQLVESGGGLVQAGGSLRLSCAASVFTFWWYDMGWYIQAPGKERELVAAISRGGSTYYADSVKGRFTISRDNAKNTVNLQMNSLKPEDTAVYYCAADTTYGINRREYWGQGTQVTVSS	low polyreactivity
QVQLVESGGGLVQAGGSLRLSCAASVGIFIYNAMGWYRQAPGKEREFVAAINISGGNTYYADSVKGRFTISRDNAKNTVFLQMNSLKPEDTGVYYCAARYASCWWIRYYYWGQGTQVTVSS	high polyreactivity
QVQLVESGGGLVQAGGSLRLSCAASVIIFSYNAMGWYRQAPGKERELVAAISYSGGSTYYADSVKGRFTISRDNAKNTVYLQMNSLKPEDTAVYYCAAEKYLGELDYWGQGTQVTVSS	low polyreactivity
QVQLVESGGGLVQAGGSLRLSCAASVITFGANTMGWDIQAPGKERELVATLTSSGGSTYYADSVKGRFTISRDNAKNTVYLQMNSLKPEDTAVYYCAASDLRDRGNYVYLPSEYWGLGTQVTVSS	low polyreactivity
QVQLVESGGGLVQAGGSLRLSCAASVITFIDYARGWYRQAPGKERELVAAINSSGGGTYYADSVKGRFTISRDNAKNTVYLQMNSLKPEDTAVYYCAADFWYWGQIDSSDYWGQGTQVTVSS	low polyreactivity
QVQLVESGGGLVQAGGSLRLSCAASVLIFGPYTMGWYRQAPGKEREFDAAINRSGGSTYYADSVKGRFTISRDNAKNTVYLQMNSLKPEDTAVYYCNAEQYGKQWYSGYNYDYWGQGTQVTVSS	high polyreactivity
QVQLVESGGGLVQAGGSLRLSCAASVLIIGYNSMGWYRQAPGTERELVASIRYSGGTTYYADSVKGRFTISRDNEKNTVNLQMNSVKPEDTAVYFCATRVTYRRRFDYWGQGTQVTVSS	high polyreactivity
QVQLVESGGGLVQAGGSLRLSCAASVRIFVDNTMGLYRQAPGKERELVAVITSGGSTNYADSVKGRFTISRDNAKNTVYLQMNSLKPEDTAVYYCATEPGGDRFDDRPFQYGYWGQGTQVTVSS	low polyreactivity
QVQLVESGGGLVQAGGSLRLSCAASVRTFEGYAMGWDRQEPGKERELVAAISKSGGRTYYADSVKGRFTISRDNAKNTVYLQMNSLKPEHTAVYYCAARVSSGSNSDYWGQGTQVTVSS	high polyreactivity
QVQLVESGGGLVQAGGSLRLSCAASVRTFGFNVMGWYRQAPGKERELVAAISWSGGSTYYADSVKGRFTISRDNAKNTVYLQMNSLKPEVTAVYYCNKRYVHRYGYWGQGTQVTVSS	low polyreactivity
QVQLVESGGGLVQAGGSLRLSCAASVRTFKFYAMGWYRQAPGKERELVAAITSSGGSTYYADSVKGRFTISRVNAKNTVYLQMNSLKPEDTAVYYCAAVGYKGYGYDYWGQGTQVTVSS	high polyreactivity
QVQLVESGGGLVQAGGSLRLSCAASVRTMGPYTMGWYRPAPGKERELVAVISSRTGLTYYADSVKGRFTISRDNAKITFYLHMNSLKPEDTAVYYCNAGGRYHAPSGDYWGQGTQVTVSS	low polyreactivity

Sequence	polyreactivity (PSR sort gate)
QVQLVESGGGLVQAGGSLRLSCAASVSIFDSYAMAWYRQAPGKERELVAAISKRGGSTYYADSVKGRFTISRDTAKNTVYLQMNCLKPEDTAVYFCAAVYSQARSKAVYSEYYYWGLGTQVTVSS	high polyreactivity
QVQLVESGGGLVQAGGSLRLSCAASVSIFRWNTMGWYRQAPGKERELVASITFTGGRTYYADSVKGRFTISRDNAKNTVYLQMNSLKPEDTAVYYCNGLVVTYPKWKYDYWGQGTQVTVSS	high polyreactivity
QVQLVESGGGLVQAGGSLRLSCAASVSIFSSYAMGWYRQAPGKERELVAAISRSGGRTYYADSVKGRFTISRDNAKNTVFLQMNSLKPEDTAVYYCNAYAQVSYGTYDYWGQGTQVTVSS	high polyreactivity
QVQLVESGGGLVQAGGSLRLSCAASVSIFWLYAMGWYRQAPGKERELVAAITYSGGRTYADSVKGRFTISRDNAKNTVYVQMISLKPEDTEVIYCATVFRYRKSWGYDYWGQGTQVTVSS	low polyreactivity
QVQLVESGGGLVQAGGSLRLSCAASVSIFYFYAMGWYIQAPGKERELVAAITDGGSTHYADSVKGRFTISRDNAKNTVYLQMNSLKPEDTAVYYCAAQWHYYLGSGYQYDYWGQGTQVTVSS	low polyreactivity
QVQLVESGGGLVQAGGSLRLSCAASVSIYPDYAMGWYRQAPGKERELVAAISRSGGSTYYADSVKGRFTISRDNAKNTVYLQMNSLKREDTAVYDCNARPGSRYYGYRLYYYWGQGTQVTVSS	high polyreactivity
QVQLVESGGGLVQAGGSLRLSCAASVSTFPFYSMGWYRQAPGKERELVAAITSGGSTYADSVKGRFTISRDNAKNTVYLQMNSLKPEDTAVYYCAASWPRWWRFGYWGQGTQVTVSS	low polyreactivity
QVQLVESGGGLVQAGGSLRLSCAASVSTYIYYAMGWYRQAPGKERELVAAISQSGGSTYYADSVKGRFTISRDNAKNTVYLQMNSLKPEDTAVYYCAARLRHLGLGRYGFDYWGQGTQVTVSS	high polyreactivity
QVQLVESGGGLVQAGGSLRLSCAASVYIFWINAMGWYRQAPGKDRELVAAIRYSTGRTYYADSVKGRFTISRDNAKNTVYLQMNSLKPEDTAVYYCNARSWYIRGSQEYYYWGQGTQVTVSS	high polyreactivity
QVQLVESGGGLVQAGGSLRLSCAATGFIFFYYAMGWYRQAPGKERELFAVIDRSGGTTYYADSVKGRFTISRDNAKNTVYLQMNSLKPEDTAVYYCNADDFTYPSGWGFIYDYWGQGTQVTVSS	low polyreactivity
QVQLVESGGGLVQAGGSLRLSCAATGFTFGFNDMGWYRQAPGKERELVAAISWSGGRTYYADSVKGRFTISRDNAKNTVYLQMNSLKPEDTAVYDCAAEGVGRADRNKEYDYWGQGTQVTVSS	high polyreactivity
QVQLVESGGGLVQAGGSLRLSCAATGFTFNRYTMGWYRQAPGKERELVASISVRGSRTYSADSVKGRFTISRDNAKNTVYLQMNSLKPEDTAVYYCNAKTYVYYRLRSYYYWGQGTQVTVSS	high polyreactivity
QVQLVESGGGLVQAGGSLRLSCAATGGIFNVYVMGWYRHAPGKESEFVAAITWRGGSTYYADSVKGRFTISRDNAKNTVYLQMNSLKPEDTAVYYCNADAPFQSSSDGYQVEYWGQGTQVTVSS	low polyreactivity
QVQLVESGGGLVQAGGSLRLSCAATGGTFEFYTMGWYRQAPGKERELVAVINASGDSTYYADSVKGRFTISRDNAKNTVYLQMNSLKPEDTAVYYCAADNQGYTTKWRREYYYWGQGTQVTVSS	low polyreactivity
QVQLVESGGGLVQAGGSLRLSCAATGIIFGDNAMGWYRQAPGKERELVAAFTIGGTSTYNADSVKGRFTISRDNAKNTVYLQMNSQKPEDTAVYYCAKTILYDCDYWGQGTQVTVSS	low polyreactivity
QVQLVESGGGLVQAGGSLRLSCAATGLNFAYNAMGWYRQAPGKERELVAAITGGGDGTYYADSVKGRFTISRDNAKNTVYLQMNSLKPEDTAVYYCADDYKYVGSEYGYWGQGTQVTVSS	low polyreactivity
QVQLVESGGGLVQAGGSLRLSCAATGLTFPQYAMGWYRQAPGKEREIVAAIRSSDDRTYYADSVKGRFTISRDNAKNTVYLQLNSLKPEDTAVYYCAARVGKIGYKPRMDYWGQGTQVSVSS	high polyreactivity
QVQLVESGGGLVQAGGSLRLSCAATGNIFADYAKGWYRQAPGKERELVAAITWSGDDTYYADSVKGRFTISRDNAKNTVYLQMNSLKPEDTAVYYCAAGYWRTSVDFDYWGQCTQVTVSS	low polyreactivity
QVQLVESGGGLVQAGGSLRLSCAATGNIFRYNAMGWYRQAPGKERELFAAISSVGTTNYADSVKGRFTISRDNEKNTVYLQMNSLKPEDTAVYYVAAVAYQGGYLNDNWGQGTQVTLSS	low polyreactivity
QVQLVESGGGLVQAGGSLRLSCAATGRIFGSNAMGWYRQAPGKEREVVAAITRGGSTNYADSVKGRFTISRDNAKNTVYLQMNSLKPEDTAVYYCAVRWYRKYNFWGQGTQVTVSS	high polyreactivity
QVQLVESGGGLVQAGGSLRLSCAATGRIFQRNAMGWSRQEPGKEREFVAAISSRGGTTYYADSVKGRFTISRDNAKNTVYLQMNSLKQEDTAVYYCAAGYVHLYYFHEYYWGQGTQVTVSS	high polyreactivity
